Data on 29 sequences can be found in the supplement of paper PMC9170038.

The data set concerns MS2 coat protein. Kind of data set: apparent KD of MS2 coat protein; designed switch direction (-1 OFF switch, 1 ON switch): 1; higher = weaker reporter binding. An outline of the steps: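 The buffer was Tris-HCl pH 7.5 with KCl, MgCl2, BSA, DTT, tRNA and Tween-20. In it, SNAP-549-labelled MS2 coat protein was titrated in doubling steps from 0.7 or 1.5 nM to 3 µM over chip-bound RNA switches transcribed by stalled E. coli RNA polymerase on Illumina chips. Apparent KD is the per-design median over clusters of curve fits to normalised fluorescence.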

Where [1] appears, read: input ligand: microRNA oligo, concentration not stated.
[2] abbreviates: Eterna round: R95, input ligand: FMN 200 uM.
[3] abbreviates: Eterna round: R95, input ligand: microRNA oligo, concentration not stated.
Setting [4] is: Eterna round: R95, input ligand: none.

As to “AUAAAACAUGAGGAUCACCCAUGUAGACGGAGAAACGUCACAUAGGAUAUAGUCAGCGGCGUUGACUAGAAGGGUGGUAGAAAA [Qubeedbi] (Eterna round: R96, puzzle: Same State NG 3)”, the “apparent KD of MS2 coat protein” value is 286 nM (input ligand: FMN 200 uM), 97.4 nM under setting [1] and 251 nM (input ligand: none).
Turning to “AUAAAACAUGAGGAUCACCCAUGUCAACAAAGAUGAGGAUAUGUACAGACUUCGGUCUGUACAGAAGGCAUAUAAU [salish99_ss1_r3_099] (puzzle: Same State 1)”, the “apparent KD of MS2 coat protein” value runs as follows: under setting [2], 15.4 nM; under setting [3], 15.2 nM; under setting [4], 13.9 nM.
Turning to “AUAAAACAUGAGGAUCACCCAUGUCAACAAAGUCGAGGAUAUGGGCAAAUAAAAUAAGAACCAGAAGGCGAAUAAC [salish99_SS1_r3_003] (Eterna round: R96, puzzle: Same State 1)”, the “apparent KD of MS2 coat protein” value (input ligand: FMN 200 uM) is 39.7 nM, the “apparent KD of MS2 coat protein” value under setting [1] is 215 nM and the “apparent KD of MS2 coat protein” value (input ligand: none) amounted to 282 nM.
With “AUAAAACAUGAGGAUCACCCAUGUCAACAAAGUCGAGGAUAUGGGCAAAUAAAAUAAGAACCAGAAGGCGAAUAAC [salish99_SS1_r3_003] (puzzle: Same State 1)”, the “apparent KD of MS2 coat protein” value under setting [3] stood at 339 nM.
With “AUAAAACAUGAGGAUCACCCAUGUCAACAAAGUCGAGGAUAUGGGCAAAUAUAAUAAGAACCAGAAGGCGAAUAAU [salish99_ss1_r3_023] (puzzle: Same State 1)”, the “apparent KD of MS2 coat protein” value by setting is: under setting [2], 36.1 nM; under setting [3], 204 nM; under setting [4], 336 nM.
The corresponding values for “AUAAAACAUGAGGAUCACCCAUGUCAACAUAGUCGAGGAUAUGGGCAAAUAAAAUAAGAACCAGAAGGCGAAUAAU [salish99_ss1_r3_040] (puzzle: Same State 1)” are 50.5 nM, 714 nM and 510 nM.
The corresponding values for “AUAAGGCAAGCUUUUUUCUCGUAGUGUAAACAUGAGGAUCACCCAUGUGCCCACCCUGGAUCUUUGGAUCGCAAAAC [Ceatgeor] (puzzle: Sensor for hsa-mir-208a)” are 23.9 nM, 18.6 nM and 23.7 nM.
For “AUAAGGCAAGCUUUUUUCUCGUUGUGUAAACAUGAGGAUCACCCAUGUGCCCACCCUGGAUCUUUGGAUCGCAGAAC [Mais] (puzzle: Sensor for hsa-mir-208a)”, the “apparent KD of MS2 coat protein” value was 40.8 nM under setting [2], 17.5 nM under setting [3] and 40.8 nM under setting [4].
For “AUAAGUUUGAUGCUCGUCUCUCCGUACAGACAUGAGGAUCACCCAUGUAGUCGGGCAGUAGCCCGGCCAGUAUGGCC [Raatbeor] (puzzle: Sensor for hsa-mir-208a)”, the “apparent KD of MS2 coat protein” value is 103 nM under setting [2], 28.8 nM under setting [3] and 119 nM under setting [4].
For the sequence “AUACUCAUGUAAGGAUAUGCAGCCGAAACGGCUGCAGAAGGUACUAUAAUACAUGAGGAUCACCCAUGUCAAAAUUAUUUAGUU [Mat - Same State NG 1 - JL mod - D99] (Eterna round: R96, puzzle: Same State NG 1)”, the “apparent KD of MS2 coat protein” value by setting is: (input ligand: FMN 200 uM) 19.5 nM; under setting [1], 21.9 nM; (input ligand: none) 22.3 nM.
For “AUACUCAUGUAAGGAUAUGCAGCCGUUUCGGCUGCAGAAGGUACUAUAAUACAUGAGGAUCACCCAUGUCUCUCGCAUUGCGAG [JL SSNG1 1.47] (Eterna round: R96, puzzle: Same State NG 1)”, the “apparent KD of MS2 coat protein” value under setting [1] amounted to 49.2 nM.
For the sequence “AUAGUUGCCGAAGGAUAUGAUGAGGAUCACCCAUCAGAAGGUUGGCUAUUGGGCUGACAUGAGGAUCACCCAUGUUUCGGUGUU (Eterna round: R96, puzzle: Same State NG 1)”, the “apparent KD of MS2 coat protein” value (input ligand: FMN 200 uM) is 19.2 nM, the “apparent KD of MS2 coat protein” value under setting [1] was determined as 17.1 nM and the “apparent KD of MS2 coat protein” value (input ligand: none) turned out to be 29.1 nM.
The corresponding values for “AUAGUUGCUGAAGGAUAUGAUGAGGAUCACCCAUCAGAAGGUUGGCUAUUGGGUGGACAUGAGGAUCACCCGUGUUCUUUGGUA (Eterna round: R96, puzzle: Same State NG 1)” are 48.6 nM, 59.1 nM and 82.4 nM.
Turning to “AUCCUACAUGAGGAUCACCCAUGUGAAGCCUCAAUAGGAUAUGCGUGUGCCUUGGCGCAUGCAGAAGGAUUGAAGC [JL Aveso mod 3] (puzzle: Same State 1)”, the “apparent KD of MS2 coat protein” value under setting [2] came to 91 nM, the “apparent KD of MS2 coat protein” value under setting [3] amounted to 311 nM and the “apparent KD of MS2 coat protein” value under setting [4] is 967 nM.
For the sequence “AUGAAGAAUUAAGGAUAUUGAUUACAUAUGUUUAACAUGAGGAUCACCCAUGUGGGUUGCGGUAUCGAGAAGGUAAAAUAAAAG [Mat - same State NG 2 - JL mod - D89] (Eterna round: R96, puzzle: Same State NG 2)”, the “apparent KD of MS2 coat protein” value is, setting by setting: (input ligand: FMN 200 uM) 252 nM; under setting [1], 193 nM; (input ligand: none) 213 nM.
The corresponding values for “AUGAUAUACUCAGGAUAUAUGCGAGACGACGAGAUAGAAGGGAGAAGAUAAUGACGUACAUGAGGAUCACCCAUGUGAGGAUCA [Same State NG1 S4] (Eterna round: R96, puzzle: Same State NG 1)” are 26.9 nM, 20.6 nM and 34 nM.
The corresponding values for “AUGGGCAUGCUAGGAUAUUAUAGUAGGCAGCAAUGAGAAGGAGUAUCCCGUUGCUAUCACGCACCACAUGAGGAUCACCCAUGU [Eternabot solution 32] (Eterna round: R96, puzzle: Same State NG 1)” are 24.9 nM, 19.5 nM and 28.3 nM.
The corresponding values for “AUGUAUCGCCUCGAGGAUAUCCUGUCAUGCACAUGAGGAUCACCCAUGUAAGAGCGAGUUUAAUGGGAGAAGGCGAGUUCUCGGU [JR_SS002_Sub1707] (Eterna round: R96, puzzle: Same State 2)” are 46.9 nM, 78.5 nM and 106 nM.
“AUUAAACAUGAGGAUCACCCAUGUAAUAAUAUGGGAGGAUAUGCGAAUUUAAUUAUUUAAGCAGAAGGCCUAAUUA [Mat - Same State 1 - D100] (puzzle: Same State 1)”: under setting [3], the “apparent KD of MS2 coat protein” value turned out to be 56 nM.
For “AUUAAACAUGAGGAUCACCCAUGUCAACAAAGUCGAGGAUAUGGGCAAAUAAAAUAAGAACCAGAAGGCGAUUAAU [salish99_ss1_r3_078] (puzzle: Same State 1)”, the “apparent KD of MS2 coat protein” value worked out at 18.7 nM under setting [2], 109 nM under setting [3] and 95.7 nM under setting [4].
Turning to “AUUAAACAUGAGGAUCACCCAUGUCAACAAAGUCGAGGAUAUGGGCAAAUAAAUUAAGAACCAGAAGGCGAAUAAU [salish99_ss1_r3_057] (puzzle: Same State 1)”, under setting [3], the “apparent KD of MS2 coat protein” value was determined as 266 nM.
On the same count and under the same terms, in the case of “AUUAAACAUGAGGAUCACCCAUGUCAACAAAGUCGAGGAUAUGGGCAAUUAAAAUAAGAACCAGAAGGCGAAUAAU [salish99_ss1_r3_061] (puzzle: Same State 1)” it was 224 nM.
Take “AUUAAUUAUGCAGGAUAUGAUUAACAUGAGGAUCACCCAUGUGGUGUUGUGAGUAAGGAGAGUGAUCAGAAGGGCAUUUUUUUU [JMF's solution 66] (Eterna round: R96, puzzle: Same State NG 2)”: the “apparent KD of MS2 coat protein” value (input ligand: FMN 200 uM) was 652 nM, the “apparent KD of MS2 coat protein” value under setting [1] is 524 nM and the “apparent KD of MS2 coat protein” value (input ligand: none) came out at 449 nM.
Regarding “AUUAUACAUGAGGAUCACCCAUGUAAUUAAUUAAUUAAGAUCAAGGAUAUCAGCUCGAAUAGAGCUGAGAAGGUGAUCACAUGU [SSNG3/20-B1] (Eterna round: R96, puzzle: Same State NG 3)”, the “apparent KD of MS2 coat protein” value under setting [1] turned out to be 218 nM.
For “AUUAUCUAUGCAGGAUAUGAUUAACAUGAGGAUCACCCAUGUGGUGUUGUGAGUAAGGAGAGUGAUCAGAAGGGCAUUUUUUUU [JMF's solution 65] (Eterna round: R96, puzzle: Same State NG 2)”, the “apparent KD of MS2 coat protein” value is, setting by setting: (input ligand: FMN 200 uM) 875 nM; under setting [1], 370 nM; (input ligand: none) 566 nM.
With “AUUAUUUAUGCAGGAUAUGAUUAACAUGAGGAUCACCCAUGUGGUGUUGUGAGUAAGGAGAGUGAUCAGAAGGGCAUUUUUUUG [JMF's solution 57] (Eterna round: R96, puzzle: Same State NG 2)”, the “apparent KD of MS2 coat protein” value reads like this: (input ligand: FMN 200 uM) 666 nM; under setting [1], 451 nM; (input ligand: none) 350 nM.
The corresponding values for “AUUGGGUAACGAGGAUAUCGUUUUUGUUUUCUUCGAGAAGGCGUUAUUGUUUAUUUCUAUUGUUACAUGAGGAUCACCCAUGUU [JR_SSNG1_Sub055] (Eterna round: R96, puzzle: Same State NG 1)” are 15 nM, 13.8 nM and 21.5 nM.
On to “AUUUCAGUCAGAGGAUAUUGUUUAUCUCUAUUGCAAGAAGGCUGAUCUUACUACCCACUUAUGAAACAUGAGGAUCACCCAUGU [JR_SSNG1_Sub017] (Eterna round: R96, puzzle: Same State NG 1)”, for which the “apparent KD of MS2 coat protein” value under setting [1] worked out at 15.7 nM.
As for “AUUUGUAAUGCAGGAUAUGAUUAACAUGAGGAUCACCCAUGUGGUGUUGUGAGUAAGGAGAGUGAUCAGAAGGGCAUUUUUUUU [JMF's solution 98] (Eterna round: R96, puzzle: Same State NG 2)”, the “apparent KD of MS2 coat protein” value (input ligand: FMN 200 uM) came to 800 nM, the “apparent KD of MS2 coat protein” value under setting [1] is 295 nM and the “apparent KD of MS2 coat protein” value (input ligand: none) was 526 nM.
